From PMC4477602 (Journal of Biological Engineering, 2015)

Target: T1, Wild type Clone A, soluble, C-terminal His6
T1 chain: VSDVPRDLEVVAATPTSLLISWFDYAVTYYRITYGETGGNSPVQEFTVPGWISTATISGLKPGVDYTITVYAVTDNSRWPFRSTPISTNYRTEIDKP
Test: SEC; Superdex 75 10/300 GL, PBS pH 7.4, samples after Co2+ affinity resin; self-association (monomer, dimer, high MW oligomer in the void volume)
Settings: both partners purified

stoichiometry N: 2
B1: Wild type Clone A, soluble, C-terminal His6 (designed binder)
chain: T1 chain
modifications: Glu47 (printed 45) taken from the text's description of wild type CA; Fig. S2 prints Asp / Glu47 (printed 45) taken from the text's description of wild type CA; Fig. S2 prints Asp
